The values that follow come from PMC4575908.

What is called Km is the concentration of substrate that gives half-maximal velocity. By kcat is commonly meant the number of substrate molecules converted per active site and unit of time at saturation. The term kcat/Km denotes the second-order rate constant that governs catalysis at low substrate concentration.

The data set relates to O=C(O)[C@H]1O[C@@H](Oc2ccc([N+](=O)[O-])cc2)[C@H](O)[C@@H](O)[C@@H]1O. Kind of data set: purified protein, by the assay type. The note with it: 37.0 °C.

In the case of BfGUS (Bacteroides fragilis NCTC 9343), the Km came to 1900 ± 300 µM, the kcat worked out at 18 ± 1 s⁻¹ and the catalytic efficiency (kcat/Km) was 9500 M⁻¹ s⁻¹.
On the same counts, the results for CpGUS (Clostridium perfringens str. 13) are 1100 ± 200 µM, 2.6 ± 0.6 s⁻¹ and 2400 M⁻¹ s⁻¹.
